Results as given in paper PMC7581431.

B1: Nkd1-BirA* [murine] / VANGL1 [human (endogenous in Flp-In-T-REx-293)] (parent)
chain 1: MGKLHSKPAAVCKRRESPEGDSFAVSAAWARKGIEEWIGRQRCPGSVSGPRQLRLAGTVGRGTRELVGDTSREALGEEDEDDFPLEVALPPEKIDSLGSGDEKRMERLSEPGQASKKQLKFEELQCDVSVEEDSRQEWTFTLYDFDNNGKVTREDITSLLHTIYEVVDSSVNHSPTSSKTLRVKLTVAPDGSQSKRSVLFNHTDLQSTRPRADTKPAEELRGWEKKQRAPLRFQGDSHLEQPDCYHHCVDENIERRNHYLDLAGIENYTSQFGPGSPSVAQKSELPPRISNPTRSRSHEPEAAHIPHRRPQGVDPGSFHLLDTPFAKASELQQRLRGTQDGSKHFVRSPKAQGKNMGMGHGARGARSKPPLVPTTHTVSPSAHLATSPALLPTLAPLGHKKHKHRAKESQASCRGLQGPLAAGGSTVMGREQVRELPAVVVYESQAGQAVQRHEHHHHHEHHHHYHHFYQP
chain 2: MDTESTYSGYSYYSSHSKKSHRQGERTRERHKSPRNKDGRGSEKSVTIQPPTGEPLLGNDSTRTEEVQDDNWGETTTAITGTSEHSISQEDIARISKDMEDSVGLDCKRYLGLTVASFLGLLVFLTPIAFILLPPILWRDELEPCGTICEGLFISMAFKLLILLIGTWALFFRKRRADMPRVFVFRALLLVLIFLFVVSYWLFYGVRILDSRDRNYQGIVQYAVSLVDALLFIHYLAIVLLELRQLQPMFTLQVVRSTDGESRFYSLGHLSIQRAALVVLENYYKDFTIYNPNLLTASKFRAAKHMAGLKVYNVDGPSNNATGQSRAMIAAAARRRDSSHNELYYEEAEHERRVKKRKARLVVAVEEAFIHIQRLQAEEQQKAPGEVMDPREAAQAIFPSMARALQKYLRITRQQNYHSMESILQHLAFCITNGMTPKAFLERYLSAGPTLQYDKDRWLSTQWRLVSDEAVTNGLRDGIVFVLKCLDFSLVVNVKKIPFIILSEEFIDPKSHKFVLRLQSETSV
B2: Nkd1-BirA* [murine] / VANGL2 [human (endogenous in Flp-In-T-REx-293)] (parent)
chain 1: B1 chain 1
chain 2: MDTESQYSGYSYKSGHSRSSRKHRDRRDRHRSKSRDGGRGDKSVTIQAPGEPLLDNESTRGDERDDNWGETTTVVTGTSEHSISHDDLTRIAKDMEDSVPLDCSRHLGVAAGATLALLSFLTPLAFLLLPPLLWREELEPCGTACEGLFISVAFKLLILLLGSWALFFRRPKASLPRVFVLRALLMVLVFLLVVSYWLFYGVRILDARERSYQGVVQFAVSLVDALLFVHYLAVVLLELRQLQPQFTLKVVRSTDGASRFYNVGHLSIQRVAVWILEKYYHDFPVYNPALLNLPKSVLAKKVSGFKVYSLGEENSTNNSTGQSRAVIAAAARRRDNSHNEYYYEEAEHERRVRKRRARLVVAVEEAFTHIKRLQEEEQKNPREVMDPREAAQAIFASMARAMQKYLRTTKQQPYHTMESILQHLEFCITHDMTPKAFLERYLAAGPTIQYHKERWLAKQWTLVSEEPVTNGLKDGIVFLLKRQDFSLVVSTKKVPFFKLSEEFVDPKSHKFVMRLQSETSV
B3: Nkd1-BirA* [murine] / DVL3 [human (endogenous in Flp-In-T-REx-293)] (parent)
chain 1: B1 chain 1
chain 2: MGETKIIYHLDGQETPYLVKLPLPAERVTLADFKGVLQRPSYKFFFKSMDDDFGVVKEEISDDNAKLPCFNGRVVSWLVSAEGSHPDPAPFCADNPSELPPPMERTGGIGDSRPPSFHPHAGGGSQENLDNDTETDSLVSAQRERPRRRDGPEHATRLNGTAKGERRREPGGYDSSSTLMSSELETTSFFDSDEDDSTSRFSSSTEQSSASRLMRRHKRRRRKQKVSRIERSSSFSSITDSTMSLNIITVTLNMEKYNFLGISIVGQSNERGDGGIYIGSIMKGGAVAADGRIEPGDMLLQVNEINFENMSNDDAVRVLREIVHKPGPITLTVAKCWDPSPRGCFTLPRSEPIRPIDPAAWVSHTAAMTGTFPAYGMSPSLSTITSTSSSITSSIPDTERLDDFHLSIHSDMAAIVKAMASPESGLEVRDRMWLKITIPNAFIGSDVVDWLYHNVEGFTDRREARKYASNLLKAGFIRHTVNKITFSEQCYYIFGDLCGNMANLSLHDHDGSSGASDQDTLAPLPHPGAAPWPMAFPYQYPPPPHPYNPHPGFPELGYSYGGGSASSQHSEGSRSSGSNRSGSDRRKEKDPKAGDSKSGGSGSESDHTTRSSLRGPRERAPSERSGPAASEHSHRSHHSLASSLRSHHTHPSYGPPGVPPLYGPPMLMMPPPPAAMGPPGAPPGRDLASVPPELTASRQSFRMAMGNPSEFFVDVM
B4: Nkd1-BirA* [murine] / NBR1 [human (endogenous in Flp-In-T-REx-293)] (parent)
chain 1: B1 chain 1
chain 2: MEPQVTLNVTFKNEIQSFLVSDPENTTWADIEAMVKVSFDLNTIQIKYLDEENEEVSINSQGEYEEALKMAVKQGNQLQMQVHEGHHVVDEAPPPVVGAKRLAARAGKKPLAHYSSLVRVLGSDMKTPEDPAVQSFPLVPCDTDQPQDKPPDWFTSYLETFREQVVNETVEKLEQKLHEKLVLQNPSLGSCPSEVSMPTSEETLFLPENQFSWHIACNNCQRRIVGVRYQCSLCPSYNICEDCEAGPYGHDTNHVLLKLRRPVVGSSEPFCHSKYSTPRLPAALEQVRLQKQVDKNFLKAEKQRLRAEKKQRKAEVKELKKQLKLHRKIHLWNSIHGLQSPKSPLGRPESLLQSNTLMLPLQPCTSVMPMLSAAFVDENLPDGTHLQPGTKFIKHWRMKNTGNVKWSADTKLKFMWGNLTLASTEKKDVLVPCLKAGHVGVVSVEFIAPALEGTYTSHWRLSHKGQQFGPRVWCSIIVDPFPSEESPDNIEKGMISSSKTDDLTCQQEETFLLAKEERQLGEVTEQTEGTAACIPQKAKNVASERELYIPSVDLLTAQDLLSFELLDINIVQELERVPHNTPVDVTPCMSPLPHDSPLIEKPGLGQIEEENEGAGFKALPDSMVSVKRKAENIASVEEAEEDLSGTQFVCETVIRSLTLDAAPDHNPPCRQKSLQMTFALPEGPLGNEKEEIIHIAEEEAVMEEEEDEEDEEEEDELKDEVQSQSSASSEDYIIILPECFDTSRPLGDSMYSSALSQPGLERGAEGKPGVEAGQEPAEAGERLPGGENQPQEHSISDILTTSQTLETVPLIPEVVELPPSLPRSSPCVHHHGSPGVDLPVTIPEVSSVPDQIRGEPRGSSGLVNSRQKSYDHSRHHHGSSIAGGLVKGALSVAASAYKALFAGPPVTAQPIISEDQTAALMAHLFEMGFCDRQLNLRLLKKHNYNILQVVTELLQLNNNDWYSQRY
B5: Nkd1-BirA* [murine] / DVL1 [human (endogenous in Flp-In-T-REx-293)] (parent)
chain 1: B1 chain 1
chain 2: MAETKIIYHMDEEETPYLVKLPVAPERVTLADFKNVLSNRPVHAYKFFFKSMDQDFGVVKEEIFDDNAKLPCFNGRVVSWLVLAEGAHSDAGSQGTDSHTDLPPPLERTGGIGDSRPPSFHPNVASSRDGMDNETGTESMVSHRRERARRRNREEAARTNGHPRGDRRRDVGLPPDSASTALSSELESSSFVDSDEDGSTSRLSSSTEQSTSSRLIRKHKRRRRKQRLRQADRASSFSSITDSTMSLNIVTVTLNMERHHFLGISIVGQSNDRGDGGIYIGSIMKGGAVAADGRIEPGDMLLQVNDVNFENMSNDDAVRVLREIVSQTGPISLTVAKCWDPTPRSYFTVPRADPVRPIDPAAWLSHTAALTGALPRYGTSPCSSAVTRTSSSSLTSSVPGAPQLEEAPLTVKSDMSAVVRVMQLPDSGLEIRDRMWLKITIANAVIGADVVDWLYTHVEGFKERREARKYASSLLKHGFLRHTVNKITFSEQCYYVFGDLCSNLATLNLNSGSSGTSDQDTLAPLPHPAAPWPLGQGYPYQYPGPPPCFPPAYQDPGFSYGSGSTGSQQSEGSKSSGSTRSSRRAPGREKERRAAGAGGSGSESDHTAPSGVGSSWRERPAGQLSRGSSPRSQASATAPGLPPPHPTTKAYTVVGGPPGGPPVRELAAVPPELTGSRQSFQKAMGNPCEFFVDIM
B6: Nkd1-BirA* [murine] / DVL2 (endogenous) [human (endogenous in Flp-In-T-REx-293)] (parent)
chain 1: B1 chain 1
chain 2: MAGSSTGGGGVGETKVIYHLDEEETPYLVKIPVPAERITLGDFKSVLQRPAGAKYFFKSMDQDFGVVKEEISDDNARLPCFNGRVVSWLVSSDNPQPEMAPPVHEPRAELAPPAPPLPPLPPERTSGIGDSRPPSFHPNVSSSHENLEPETETESVVSLRRERPRRRDSSEHGAGGHRTGGPSRLERHLAGYESSSTLMTSELESTSLGDSDEEDTMSRFSSSTEQSSASRLLKRHRRRRKQRPPRLERTSSFSSVTDSTMSLNIITVTLNMEKYNFLGISIVGQSNERGDGGIYIGSIMKGGAVAADGRIEPGDMLLQVNDMNFENMSNDDAVRVLRDIVHKPGPIVLTVAKCWDPSPQAYFTLPRNEPIQPIDPAAWVSHSAALTGTFPAYPGSSSMSTITSGSSLPDGCEGRGLSVHTDMASVTKAMAAPESGLEVRDRMWLKITIPNAFLGSDVVDWLYHHVEGFPERREARKYASGLLKAGLIRHTVNKITFSEQCYYVFGDLSGGCESYLVNLSLNDNDGSSGASDQDTLAPLPGATPWPLLPTFSYQYPAPHPYSPQPPPYHELSSYTYGGGSASSQHSEGSRSSGSTRSDGGAGRTGRPEERAPESKSGSGSESEPSSRGGSLRRGGEASGTSDGGPPPSRGSTGGAPNLRAHPGLHPYGPPPGMALPYNPMMVVMMPPPPPPVPPAVQPPGAPPVRDLGSVPPELTASRQSFHMAMGNPSEFFVDVM

Variants of: B1
Assay: BioID proximity labeling (mass spectrometry)
Settings: with VANGL1 [human (endogenous in Flp-In-T-REx-293)]; +Wnt3a

Row | Variant | response (unweighted spectral counts)
1 | chain 1 G2A | 7

Variants of: B2
Assay: BioID proximity labeling (mass spectrometry)
Settings: with VANGL2 [human (endogenous in Flp-In-T-REx-293)]; +Wnt3a

Row | Variant | response (unweighted spectral counts)
2 | chain 1 G2A | 3

Variants of: B3
Assay: BioID proximity labeling (mass spectrometry)
Settings: with DVL3 [human (endogenous in Flp-In-T-REx-293)]; +Wnt3a

Row | Variant | response (unweighted spectral counts)
3 | chain 1 G2A | 240

Variants of: B4
Assay: BioID proximity labeling (mass spectrometry)
Settings: with NBR1 [human (endogenous in Flp-In-T-REx-293)]; +Wnt3a

Row | Variant | response (unweighted spectral counts)
4 | chain 1 G2A | 24

Variants of: B5
Assay: BioID proximity labeling (mass spectrometry)
Settings: with DVL1 [human (endogenous in Flp-In-T-REx-293)]; +Wnt3a

Row | Variant | response (unweighted spectral counts)
5 | chain 1 G2A | 127

Variants of: B6
Assay: BioID proximity labeling (mass spectrometry)
Settings: with DVL2 (endogenous) [human (endogenous in Flp-In-T-REx-293)]; +Wnt3a

Row | Variant | response (unweighted spectral counts)
6 | chain 1 G2A | 303
